Measured values as given in patent publication US20160194391A1 (AstraZeneca / MedImmune, published 2016).
Where two headings read alike, the source gives them in different places.

Legend:
human IL-6 [1] = target: T1, human IL-6 (human, UniProt P05231 30-212); assay: cell-based or functional assay
human IL-6 [2] = target: T1, human IL-6; assay: SPR (SensiQ Pioneer), mAb captured on protein G, IL-6 as analyte (3×FLAG-IL-6 or IL-6 CYT-213, 1-100 nM), 25 C, 1:1 model
Method: (§1) Equilibrium constants for rabbit human chimeric mAbs were determined by binding the mAb to the protein G coated chip followed by binding of each analyte (IL-6 or IL-23) to its respective mAb. In order to minimize mass transfer effects, the surface densities of the mAbs for each analyte were adjusted so that as analyte binding approached saturation its corresponding RU fell between 200 and 300. […] For each binding and dissociation cycle the chip surface was regenerated with 15 uL of 20 mM NaOH (5671-02, Mallinckrodt Baker, Philliphsburg, N.J.). The assay temperature was maintained at 25° C. with an analyte flow rate of 50 μL/min and included a 2 minute association phase and 10-30 minute dissociation phase. The on/off rates (kₐ/kd) and dissociation constants (KD) were determined using the format described above along with pseudo-first-order 1:1 interaction model software (Qdat, ICx Nomadics, Stillwater, Okla.).

Primate IL-6 = target: T2, Primate IL-6 (Macaca mulatta, UniProt P51494); assay: cell-based or functional assay
T2 sequence (cytokine, looked up): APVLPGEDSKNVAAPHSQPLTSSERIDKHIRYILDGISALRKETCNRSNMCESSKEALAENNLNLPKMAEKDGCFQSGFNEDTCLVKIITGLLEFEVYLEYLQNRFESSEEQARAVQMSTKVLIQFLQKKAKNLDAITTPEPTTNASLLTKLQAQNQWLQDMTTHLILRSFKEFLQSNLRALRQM

[3] = target: T3, human dimeric IL-23 (eBiosciences 34-8239) (human, UniProt P29460 23-328; Q9NPF7 20-189); assay: SPR (SensiQ Pioneer), mAb captured on protein G, human dimeric IL-23 as analyte (1-100 nM), 25 C, 1:1 model; the sentence names no analyte
T3 construct: Baculovirus-derived heterodimer; the bioassay used eBioscience 14-8239 or Humanzyme HZ-1049; also called heterodimeric recombinant IL-23; eBio IL23
T3 sequence (looked up) 1: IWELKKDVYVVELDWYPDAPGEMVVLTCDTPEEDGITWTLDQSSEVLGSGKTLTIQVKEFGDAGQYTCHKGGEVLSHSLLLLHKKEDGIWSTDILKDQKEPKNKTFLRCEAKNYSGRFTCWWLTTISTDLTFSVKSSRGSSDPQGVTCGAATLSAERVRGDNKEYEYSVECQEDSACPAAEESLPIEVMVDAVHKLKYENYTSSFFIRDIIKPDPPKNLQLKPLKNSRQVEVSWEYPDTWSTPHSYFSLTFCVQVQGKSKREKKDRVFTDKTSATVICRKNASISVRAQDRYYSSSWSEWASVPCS
T3 sequence (looked up) 2: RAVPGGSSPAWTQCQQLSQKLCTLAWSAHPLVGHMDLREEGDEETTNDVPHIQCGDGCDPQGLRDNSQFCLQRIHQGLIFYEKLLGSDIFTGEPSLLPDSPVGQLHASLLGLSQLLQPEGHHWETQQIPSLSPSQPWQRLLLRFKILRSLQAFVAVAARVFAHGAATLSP
Method: as §1

[4] = target: T3, human dimeric IL-23 (eBiosciences …); assay: cell-based or functional assay
IL-23 p40-p19-His = target: T4, IL-23 p40-p19-His (human); assay: ELISA on IL-23 p40-p19-His
T4 construct: Single-chain fusion coated on the IL-23 ELISA plates; also called p40:p19-6×HIS
T4 chain: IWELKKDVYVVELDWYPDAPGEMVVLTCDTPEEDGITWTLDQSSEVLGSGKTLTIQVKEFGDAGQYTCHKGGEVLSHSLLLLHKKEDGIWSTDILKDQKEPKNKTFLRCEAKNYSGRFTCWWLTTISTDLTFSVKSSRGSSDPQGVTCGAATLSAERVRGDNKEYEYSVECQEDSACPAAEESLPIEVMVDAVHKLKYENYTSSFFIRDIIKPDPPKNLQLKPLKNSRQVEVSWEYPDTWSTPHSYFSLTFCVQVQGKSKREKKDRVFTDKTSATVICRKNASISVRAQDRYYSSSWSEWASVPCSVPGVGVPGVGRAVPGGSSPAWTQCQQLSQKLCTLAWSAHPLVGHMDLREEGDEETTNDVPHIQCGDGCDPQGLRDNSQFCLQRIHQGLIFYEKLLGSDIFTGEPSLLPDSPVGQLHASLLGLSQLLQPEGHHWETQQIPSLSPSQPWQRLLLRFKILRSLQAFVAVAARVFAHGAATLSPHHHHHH

[5] = target: T3, human dimeric IL-23 (eBiosciences …); assay: cell-based or functional assay; remark: listed apart in the source
human IL-12 [6] = target: T5, human IL-12 (human, UniProt P29459 23-219; P29460 23-328); assay: cell-based or functional assay
T5 sequence (looked up) 1: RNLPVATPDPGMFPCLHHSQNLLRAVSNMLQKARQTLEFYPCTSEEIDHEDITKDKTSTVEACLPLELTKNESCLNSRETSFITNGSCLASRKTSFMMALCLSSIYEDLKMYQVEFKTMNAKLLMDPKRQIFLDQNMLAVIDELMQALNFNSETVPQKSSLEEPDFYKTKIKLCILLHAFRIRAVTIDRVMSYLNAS
T5 sequence (looked up) 2: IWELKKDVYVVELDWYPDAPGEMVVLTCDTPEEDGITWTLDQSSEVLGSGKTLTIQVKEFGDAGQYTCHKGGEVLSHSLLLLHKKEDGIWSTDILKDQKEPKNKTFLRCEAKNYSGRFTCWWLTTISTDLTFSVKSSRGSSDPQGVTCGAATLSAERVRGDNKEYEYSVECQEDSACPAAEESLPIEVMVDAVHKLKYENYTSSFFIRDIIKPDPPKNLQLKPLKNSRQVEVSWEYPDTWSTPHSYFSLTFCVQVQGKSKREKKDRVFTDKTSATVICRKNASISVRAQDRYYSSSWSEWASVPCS

[7] = target: T6, primate IL-23 (p40:p19 fusion, 6×HIS) (primate); assay: cell-based or functional assay
T6 chain: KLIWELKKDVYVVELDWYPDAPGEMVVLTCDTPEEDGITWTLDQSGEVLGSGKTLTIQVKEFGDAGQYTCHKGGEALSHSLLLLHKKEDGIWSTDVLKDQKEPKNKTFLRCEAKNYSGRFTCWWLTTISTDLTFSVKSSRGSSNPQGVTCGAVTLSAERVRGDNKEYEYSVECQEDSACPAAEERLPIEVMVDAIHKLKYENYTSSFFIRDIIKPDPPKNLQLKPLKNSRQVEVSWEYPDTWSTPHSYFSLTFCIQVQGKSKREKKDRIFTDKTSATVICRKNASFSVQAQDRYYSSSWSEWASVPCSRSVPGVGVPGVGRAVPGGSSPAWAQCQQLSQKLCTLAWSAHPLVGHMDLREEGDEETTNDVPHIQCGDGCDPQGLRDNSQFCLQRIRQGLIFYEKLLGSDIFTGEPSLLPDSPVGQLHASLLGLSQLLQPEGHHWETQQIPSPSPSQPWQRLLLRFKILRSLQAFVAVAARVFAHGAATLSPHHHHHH

monkey IL-12 (macaque) [8] = target: T7, monkey IL-12 (macaque) (macaque, UniProt P48091 23-219; P48095 23-328); assay: cell-based or functional assay
T7 sequence (looked up) 1: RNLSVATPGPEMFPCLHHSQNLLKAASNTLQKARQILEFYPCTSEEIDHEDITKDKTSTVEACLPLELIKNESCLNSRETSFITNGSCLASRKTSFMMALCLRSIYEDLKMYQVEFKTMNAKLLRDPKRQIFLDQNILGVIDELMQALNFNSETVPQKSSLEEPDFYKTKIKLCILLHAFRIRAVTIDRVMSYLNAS
T7 sequence (looked up) 2: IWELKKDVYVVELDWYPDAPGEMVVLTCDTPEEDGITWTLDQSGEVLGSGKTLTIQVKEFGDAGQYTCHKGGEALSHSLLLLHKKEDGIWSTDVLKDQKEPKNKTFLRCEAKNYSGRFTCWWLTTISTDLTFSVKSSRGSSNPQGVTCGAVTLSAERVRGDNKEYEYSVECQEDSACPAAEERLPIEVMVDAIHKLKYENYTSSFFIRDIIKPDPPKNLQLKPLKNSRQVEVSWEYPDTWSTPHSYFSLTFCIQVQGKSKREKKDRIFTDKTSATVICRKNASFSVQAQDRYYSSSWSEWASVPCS

monkey IL-12 (macaque) [9] = target: T7, monkey IL-12 (macaque); assay: cell-based or functional assay; remark: listed apart in the source
human IL-12 [10] = target: T5, human IL-12; assay: IL-12 binding assay of the selection not described
[11] = target: T3, human dimeric IL-23 (eBiosciences …); assay: cell-based or functional assay; remark: listed apart in the source
human IL-12 p40 subunit = target: T8, human IL-12 p40 subunit (human, UniProt P29460 23-328); assay: ELISA, human IL-12 p40 subunit coated on the plate; antibody concentration not given [Binding to human IL-12 p40]
T8 construct: Coated on ELISA plates
T8 sequence (looked up): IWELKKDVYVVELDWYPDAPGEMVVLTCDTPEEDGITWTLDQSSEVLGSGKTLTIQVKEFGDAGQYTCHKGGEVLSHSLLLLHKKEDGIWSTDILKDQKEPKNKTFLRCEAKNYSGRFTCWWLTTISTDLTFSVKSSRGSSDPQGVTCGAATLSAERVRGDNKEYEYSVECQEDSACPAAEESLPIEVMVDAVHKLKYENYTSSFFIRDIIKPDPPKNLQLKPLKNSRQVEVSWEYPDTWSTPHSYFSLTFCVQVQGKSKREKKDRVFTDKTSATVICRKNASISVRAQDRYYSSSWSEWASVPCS

human IL-12 [12] = target: T5, human IL-12; assay: ELISA, human IL-12 coated on the plate; antibody concentration not given [Binding to Human IL-12]

B1: 9H4 chimeric mAb (antibody, V domains shown)
VH: QSLEESGGRLVTPGTPLTLTCTASGFSLSSYDMSWVRQAPGKGLEWIGYIYTDTSTYYANWAKGRFSISKTSTTVDLKMTSLTAEDTATYFCAKGSTDYAFDTRLDLWGPGTLVTVSS
VL: YDMTQTPASVEVAMGGTVTIKCQASQSISNELSWYQQKPGQPPKLLIYRTSTLASGVSSRFKGSGSGTEYTLTISGVECADAATYYCQQGYNSNDVDNVFGGGTEVVVVR
notes: Rabbit/human chimeric IgG (human IgG1, kappa); HEK293; also called 9H4 clone
EC50, inhibition of IL-6 induced B9 cell proliferation (human IL-6 [1]): 0.109 ng/mL | Kd (human IL-6 [2]): 58 pM | koff (human IL-6 [2]): 4.75e-05 s⁻¹ | kon (human IL-6 [2]): 816000 M⁻¹ s⁻¹ | IC50 (read off the curve) (B9 proliferation, OD570-600) (Primate IL-6): ~10 ng/mL

B2: 22H8 chimeric mAb (antibody, V domains shown)
VH: QSLEESGGRLVTPGTPLTLTCTVSGFSLSTYTMNWVRQSPGKGLEWIGAISYDGGTAYANWAKGRFTISKTSTTVDLQIASPTTEDTATYFCARGFYVYAYIGDAFDPWGPGTLVTVSS
VL: AVLTQTPSPVSATVGGTVTIKCQSSQTVYKNNLLSWYQQKPGQPPKLLIYLASTLASGVPSRFSGSGSGTQFTLTISGVQCDDAATYYCLGGYDDDADTAFGGGTEVVVVR
notes: Rabbit/human chimeric IgG (human IgG1, kappa); HEK293; also called mAb 22H8
Kd [3]: 221 pM | koff [3]: 8.94e-05 s⁻¹ | kon [3]: 403000 M⁻¹ s⁻¹ | EC50: concentration necessary to inhibit bioactivity of 50 pg/ml of IL-6 [4]: 0.603 ng/mL | binding result (IL-23 p40-p19-His): binds | IC50 (read off the curve) (IL-17 from mouse splenocytes, OD450) [5]: ~0.8 ng/mL | IC50 (read off the curve) (interferon-gamma from NK92 cells, OD450) (human IL-12 [6]): ~0.8 ng/mL | IC50 (read off the curve) (IL-17 from mouse splenocytes, OD450) [7]: ~4 ng/mL

B3: 45G5 chimeric mAb (antibody, V domains shown)
VH: QSVEESGGRLVTPGTPLTLTCTVSGFSLSVYPINWVRQAPGKGLGWIGIINDVDDTAYSAWAKGRFTISKASSTTVDLKITSPTTEDTATYFCARGYLSYAYAGDAFDPWGPGTLVTVSS
VL: AVLTQTPSPVSAAVGGTVTIKCQSSQSIYNNNLLSWYQQKPGQPPRLLIHFASTLASGVPDRFSGSGSGTQFTLTISGVQCDDAATYYCLGGYDDDADTAFGGGTEVVVV
notes: Rabbit/human chimeric IgG (human IgG1, kappa); HEK293; also called mAb 45G5
EC50: concentration necessary to inhibit bioactivity of 50 pg/ml of IL-6 [4]: 0.385 ng/mL | IC50 (read off the curve) (interferon-gamma from NK92 cells, OD450) (monkey IL-12 (macaque) [8]): ~4 ng/mL | binding result (IL-23 p40-p19-His): binds | IC50 (read off the curve) (monkey IL-12 (macaque) [9]): ~4 ng/mL | binding result (human IL-12 [10]): binds | IC50 (read off the curve) (IL-17 from mouse splenocytes, OD450) [11]: ~2 ng/mL

B4: 31A12 chimeric mAb (antibody, V domains shown)
VH: QSLEESGGRLVTPGTPLTLTCTASGFSLSSYWMTWVRQAPGGGLEWIGTIATSSTYYASWAKGRFTISRTSTTVDLKMTSLTTEDTATYFCARGLTTDYDLDLWGPGTLVTVSS
VL: LVMTQTPASVSAAVGGTVTINCQASEDIESYLAWYQQKPGQRPKLLIYSASTLTSGVPSRFKGSGSGKQFTLTISGVQREDAATYYCLGADDTTTVFGGGTKVVVVR
notes: Rabbit/human chimeric IgG (human IgG1, kappa); HEK293; also called 31A12 mAb
binding result (human IL-12 p40 subunit): binds | binding result (human IL-12 [12]): binds | IC50 (read off the curve) (IL-17 from mouse splenocytes, OD450) [7]: ~0.2 ng/mL
